Assay results from patent publication US20050193443A1.

Target: maize VIVIPAROUS-1 (VP1) B3-domain transcription factor (maize) (UniProt P26307)
Experiment: cell-based or functional assay

Chain of UniProt P26307 (P26307 whole entry): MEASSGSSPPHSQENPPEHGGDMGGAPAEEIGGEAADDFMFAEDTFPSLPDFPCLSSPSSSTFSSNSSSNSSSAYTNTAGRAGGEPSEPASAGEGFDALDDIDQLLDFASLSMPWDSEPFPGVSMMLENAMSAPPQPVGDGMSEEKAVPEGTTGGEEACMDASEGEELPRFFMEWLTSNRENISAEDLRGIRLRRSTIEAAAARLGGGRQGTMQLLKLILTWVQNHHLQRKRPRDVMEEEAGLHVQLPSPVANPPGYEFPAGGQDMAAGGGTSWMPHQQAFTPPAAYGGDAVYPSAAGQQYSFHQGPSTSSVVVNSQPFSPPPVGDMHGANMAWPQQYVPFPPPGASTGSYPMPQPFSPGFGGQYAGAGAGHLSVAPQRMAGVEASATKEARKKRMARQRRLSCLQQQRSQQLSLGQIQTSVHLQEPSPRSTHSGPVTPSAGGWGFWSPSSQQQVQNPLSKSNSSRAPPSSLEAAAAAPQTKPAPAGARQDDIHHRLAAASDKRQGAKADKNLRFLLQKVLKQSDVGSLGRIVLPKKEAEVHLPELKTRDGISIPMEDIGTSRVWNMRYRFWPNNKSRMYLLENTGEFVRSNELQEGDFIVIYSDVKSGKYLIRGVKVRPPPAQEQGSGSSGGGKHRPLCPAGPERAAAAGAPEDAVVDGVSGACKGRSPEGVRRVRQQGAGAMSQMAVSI

ABA-inducible Em-GUS reporter gene expression, transiently co-transformed rice protoplasts; synergy relative to that of ABI5 with VP1: 2 fold
Substance: ABF3 (ABA-Response Element-Binding Factor 3) (from UniProt Q9M7Q3 1-454)
